Source: the supplement of paper PMC9732359
± gives the uncertainty stated by the source.

Test: protein stability index of a GFP-peptide fusion (yeast GPS) (PSI 1-4); higher = more stable; sorted into four equal gates, so the index is relative within each strain
Procedure, shortened: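 Yeast carrying a pooled library were grown to mid-log phase in leucine-free medium. Each library plasmid expresses Cherry and has a tiled 17-residue yeast protein peptide fused downstream of GFP. Cells were sorted into four equal gates by GFP/Cherry ratio, and plasmids from each gate were PCR-amplified, Illumina-sequenced and assigned to strains by barcode. Summing, across gates, the read frequency times the gate number gave each peptide's protein stability index.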

DPKTSLRIVKPTVSLTI [RPC82]
protein stability index (doa10∆): 2.3 ± 0.095 | protein stability index (pdr5∆): 2.3 ± 0.084 | protein stability index (san1∆): 2.56 ± 0.14 | protein stability index (ubr1∆): 3.34 ± 0.079

RGPRNSREAVRHFGMGP [RPL18A]
protein stability index (doa10∆): 2.53 ± 0.25 | protein stability index (pdr5∆): 2.86 ± 0.18

EPKQKANAVQNNNGNSA [SRP21]
protein stability index (doa10∆): 3.07 ± 0.083 | protein stability index (pdr5∆): 3.24 ± 0.07 | protein stability index (san1∆): 2.85 ± 0.19 | protein stability index (ubr1∆): 3.24 ± 0.12

FKYLLGVTDLFRHFIGI [ISW2]
protein stability index (doa10∆): 2.17 ± 0.056 | protein stability index (pdr5∆): 1.35 ± 0.048 | protein stability index (san1∆): 1.25 ± 0.12 | protein stability index (ubr1∆): 1.3 ± 0.071

SALEQAIIYQRGKDGKL [YGL100W/SEH1]
protein stability index (doa10∆): 2.93 ± 0.073 | protein stability index (pdr5∆): 3.22 ± 0.051 | protein stability index (san1∆): 3.15 ± 0.047 | protein stability index (ubr1∆): 3 ± 0.06

DLSLNIHPIPSVTVSQG [YMR129W/POM152]
protein stability index (doa10∆): 1.98 ± 0.055 | protein stability index (pdr5∆): 2.43 ± 0.057 | protein stability index (san1∆): 1.98 ± 0.074 | protein stability index (ubr1∆): 2.17 ± 0.039

TSRVFAKIISKAPEQFI [YML103C/NUP188]
protein stability index (pdr5∆): 3.08 ± 0.14

SDEEENNNNKSINKNNK [SSN2]
protein stability index (doa10∆): 2.94 ± 0.07 | protein stability index (pdr5∆): 3.02 ± 0.079 | protein stability index (san1∆): 2.72 ± 0.065 | protein stability index (ubr1∆): 3.07 ± 0.08

RNFKKANLVNKESDLLE [BRN1]
protein stability index (doa10∆): 1.7 ± 0.099 | protein stability index (pdr5∆): 1.58 ± 0.051 | protein stability index (san1∆): 1.64 ± 0.11 | protein stability index (ubr1∆): 1.43 ± 0.053

TSLLNKVLKSGSGVDSS [RRP42]
protein stability index (doa10∆): 2.87 ± 0.12 | protein stability index (pdr5∆): 2.88 ± 0.077 | protein stability index (san1∆): 2.6 ± 0.13 | protein stability index (ubr1∆): 3.21 ± 0.12

SEETQFKYVEDRFPLKL [ITC1]
protein stability index (doa10∆): 3.47 ± 0.13 | protein stability index (pdr5∆): 3.09 ± 0.13 | protein stability index (san1∆): 3.27 ± 0.09 | protein stability index (ubr1∆): 3.01 ± 0.14

YNVENQQYVAAGDLRAL [FAS1]
protein stability index (doa10∆): 2.81 ± 0.11 | protein stability index (pdr5∆): 2.83 ± 0.087 | protein stability index (san1∆): 2.82 ± 0.13 | protein stability index (ubr1∆): 2.85 ± 0.13

EFVSYYYAHSIPSSKID [SNU114]
protein stability index (doa10∆): 2.01 ± 0.045 | protein stability index (pdr5∆): 1.9 ± 0.052 | protein stability index (san1∆): 2.07 ± 0.063 | protein stability index (ubr1∆): 1.62 ± 0.039

LRIELQSVYNDEKLKTE [SRB8]
protein stability index (doa10∆): 3.17 ± 0.22 | protein stability index (pdr5∆): 3.23 ± 0.24 | protein stability index (san1∆): 3.26 ± 0.12

TGTGLQDENIGLSMLAK [RPC31]
protein stability index (doa10∆): 3.12 ± 0.14 | protein stability index (san1∆): 3.05 ± 0.13 | protein stability index (ubr1∆): 3.4 ± 0.11

NIMVTIDGCVKIGDLGL [SSN3]
protein stability index (doa10∆): 3.27 ± 0.16 | protein stability index (pdr5∆): 3.12 ± 0.14 | protein stability index (san1∆): 3.5 ± 0.069 | protein stability index (ubr1∆): 3.43 ± 0.052

FSIFNYFKMFPASKHDK [RPC34]
protein stability index (doa10∆): 3.28 ± 0.19 | protein stability index (pdr5∆): 1.34 ± 0.12 | protein stability index (ubr1∆): 2.44 ± 0.2

NSTDGAKITEIGSTSKR [YIL149C/MLP2]
protein stability index (doa10∆): 3.02 ± 0.12 | protein stability index (pdr5∆): 2.91 ± 0.086 | protein stability index (san1∆): 3.01 ± 0.074 | protein stability index (ubr1∆): 3.18 ± 0.062

IVQELLDKNLIKLVKQN [RPC34]
protein stability index (doa10∆): 1.97 ± 0.057 | protein stability index (pdr5∆): 1.99 ± 0.058 | protein stability index (san1∆): 2.62 ± 0.068 | protein stability index (ubr1∆): 2.57 ± 0.052

EMVENSSENNQIILAYI [SRP68]
protein stability index (doa10∆): 3.21 ± 0.1 | protein stability index (pdr5∆): 3.11 ± 0.088 | protein stability index (san1∆): 2.77 ± 0.08 | protein stability index (ubr1∆): 3.35 ± 0.062

NIIQAKRDAKAAGSYYV [RPL7A]
protein stability index (doa10∆): 3.39 ± 0.11 | protein stability index (pdr5∆): 3.24 ± 0.082 | protein stability index (san1∆): 3.11 ± 0.057 | protein stability index (ubr1∆): 2.64 ± 0.087

RAASIRARVKAFPKDDR [RPL3]
protein stability index (doa10∆): 1.22 ± 0.035 | protein stability index (pdr5∆): 1.46 ± 0.051 | protein stability index (san1∆): 1.27 ± 0.078 | protein stability index (ubr1∆): 1.5 ± 0.039

AVTEATSTNGDSENNEE [RGR1]
protein stability index (doa10∆): 3.13 ± 0.14 | protein stability index (pdr5∆): 3.3 ± 0.076 | protein stability index (san1∆): 3.36 ± 0.068 | protein stability index (ubr1∆): 3.08 ± 0.073

LTHSTPKNFGIGQAVQP [RPL8A]
protein stability index (doa10∆): 3.06 ± 0.06 | protein stability index (pdr5∆): 3.01 ± 0.045 | protein stability index (san1∆): 3.02 ± 0.033 | protein stability index (ubr1∆): 3.18 ± 0.036

GVQTAYIDYSSKRYIPS [RRP40]
protein stability index (doa10∆): 2.43 ± 0.067 | protein stability index (pdr5∆): 2.61 ± 0.057 | protein stability index (san1∆): 2.48 ± 0.1 | protein stability index (ubr1∆): 2.33 ± 0.068

FDRLNGNDTISKFYNMK [SSN2]
protein stability index (doa10∆): 3.17 ± 0.1 | protein stability index (pdr5∆): 3.06 ± 0.082 | protein stability index (san1∆): 3.19 ± 0.053 | protein stability index (ubr1∆): 3.08 ± 0.059

KKWPQFYAAVQKNYADP [SIN4]
protein stability index (doa10∆): 1.5 ± 0.07 | protein stability index (pdr5∆): 2.09 ± 0.084 | protein stability index (san1∆): 2.77 ± 0.13 | protein stability index (ubr1∆): 2.18 ± 0.075

PRETIPFLHLRKKTPAG [FAS2]
protein stability index (doa10∆): 2.73 ± 0.13 | protein stability index (pdr5∆): 2.43 ± 0.1 | protein stability index (san1∆): 2.63 ± 0.13 | protein stability index (ubr1∆): 2.78 ± 0.094

FFPYYVHTIIAGLDEDG [PRE7]
protein stability index (doa10∆): 3.65 ± 0.15 | protein stability index (pdr5∆): 3.31 ± 0.12 | protein stability index (san1∆): 3.35 ± 0.092 | protein stability index (ubr1∆): 3.26 ± 0.095

NTHYHADYRLILTGTPL [SNF2]
protein stability index (doa10∆): 1.31 ± 0.11 | protein stability index (pdr5∆): 1.71 ± 0.097 | protein stability index (san1∆): 1.39 ± 0.12 | protein stability index (ubr1∆): 1.75 ± 0.076

SNEAAKPSFSFPGKPVD [YOR098C/NUP1]
protein stability index (doa10∆): 2.84 ± 0.048 | protein stability index (pdr5∆): 2.96 ± 0.048 | protein stability index (san1∆): 3.01 ± 0.038 | protein stability index (ubr1∆): 2.95 ± 0.047

TPTDVIGVVSLTNGVTE [RRP6]
protein stability index (doa10∆): 3.21 ± 0.14 | protein stability index (pdr5∆): 2.87 ± 0.07 | protein stability index (san1∆): 3.03 ± 0.098 | protein stability index (ubr1∆): 3.15 ± 0.059

SVFMPLIFIACNDEDKD [ECM29]
protein stability index (doa10∆): 2.99 ± 0.069 | protein stability index (pdr5∆): 2.93 ± 0.058 | protein stability index (san1∆): 2.09 ± 0.079 | protein stability index (ubr1∆): 2.55 ± 0.04

KADDDSVTIISAGNDKM [ASC1]
protein stability index (doa10∆): 3.24 ± 0.091 | protein stability index (pdr5∆): 2.92 ± 0.11 | protein stability index (san1∆): 3.16 ± 0.04 | protein stability index (ubr1∆): 3.04 ± 0.058

SLENNIREFPEYFAAQA [RPL10]
protein stability index (doa10∆): 2.3 ± 0.065 | protein stability index (pdr5∆): 2.66 ± 0.068 | protein stability index (san1∆): 2.75 ± 0.05 | protein stability index (ubr1∆): 2.52 ± 0.062

KANIFQVIKNEVCAKMP [SSN2]
protein stability index (doa10∆): 2.7 ± 0.14 | protein stability index (pdr5∆): 2.27 ± 0.084 | protein stability index (san1∆): 1.4 ± 0.21 | protein stability index (ubr1∆): 1.84 ± 0.09

RQPVEGRSRDGGLRFGE [RPB2]
protein stability index (doa10∆): 2.86 ± 0.29 | protein stability index (san1∆): 2.81 ± 0.17

IACVLTVINEQQREAVR [RPL35A]
protein stability index (doa10∆): 1.73 ± 0.057 | protein stability index (pdr5∆): 2.12 ± 0.068 | protein stability index (san1∆): 2.18 ± 0.08 | protein stability index (ubr1∆): 2.23 ± 0.066

KKIENTMLENITLRGVE [RPO21]
protein stability index (doa10∆): 3.38 ± 0.12 | protein stability index (pdr5∆): 2.79 ± 0.12 | protein stability index (san1∆): 2.98 ± 0.07 | protein stability index (ubr1∆): 3.09 ± 0.077

SDNSVSVRLQVTKILPH [IRR1]
protein stability index (doa10∆): 2.86 ± 0.15 | protein stability index (pdr5∆): 2.92 ± 0.12 | protein stability index (san1∆): 2.74 ± 0.097 | protein stability index (ubr1∆): 3.04 ± 0.074

ESMSYLPDPILKNFLSY [MCD1]
protein stability index (doa10∆): 2.34 ± 0.13 | protein stability index (pdr5∆): 2.79 ± 0.12 | protein stability index (san1∆): 2.5 ± 0.14 | protein stability index (ubr1∆): 2.51 ± 0.098

HIVQDCTLTADGAYALS [ASC1]
protein stability index (doa10∆): 2.37 ± 0.057 | protein stability index (pdr5∆): 2.69 ± 0.062 | protein stability index (san1∆): 2.52 ± 0.12 | protein stability index (ubr1∆): 2.44 ± 0.064

GLFDSFTNGVLAVTNLL [YML031W/NDC1]
protein stability index (doa10∆): 2.64 ± 0.14 | protein stability index (pdr5∆): 2.95 ± 0.22 | protein stability index (san1∆): 2.75 ± 0.11

SNGVLNVDNQTSDLVKS [RPS17A]
protein stability index (doa10∆): 2.83 ± 0.12 | protein stability index (pdr5∆): 2.88 ± 0.12 | protein stability index (san1∆): 3.06 ± 0.18 | protein stability index (ubr1∆): 2.86 ± 0.075

KSAYANTEKDYKMVQEQ [SMC2]
protein stability index (doa10∆): 2.95 ± 0.053 | protein stability index (pdr5∆): 3.02 ± 0.066 | protein stability index (san1∆): 3.19 ± 0.04 | protein stability index (ubr1∆): 3.21 ± 0.049

TEYCVGDYVAYQLNGVA [YMR129W/POM152]
protein stability index (doa10∆): 2.83 ± 0.14 | protein stability index (pdr5∆): 3.1 ± 0.13 | protein stability index (san1∆): 2.1 ± 0.23 | protein stability index (ubr1∆): 2.52 ± 0.066

MMVNISVLISIPLDNYD [PCI8]
protein stability index (doa10∆): 1.43 ± 0.038 | protein stability index (pdr5∆): 1.42 ± 0.044 | protein stability index (san1∆): 1.72 ± 0.065 | protein stability index (ubr1∆): 1.41 ± 0.037

LEEVSLKWIDTASKFGK [RPL3]
protein stability index (doa10∆): 1.75 ± 0.097 | protein stability index (pdr5∆): 1.91 ± 0.092 | protein stability index (san1∆): 1.8 ± 0.12 | protein stability index (ubr1∆): 1.95 ± 0.089

TQAKKLYHHTTKTILSG [SRP72]
protein stability index (doa10∆): 3.17 ± 0.069 | protein stability index (pdr5∆): 2.86 ± 0.051 | protein stability index (san1∆): 2.49 ± 0.098 | protein stability index (ubr1∆): 3.26 ± 0.046

APEQQVQQFAQLPVGFK [UBP6]
protein stability index (doa10∆): 2.92 ± 0.08 | protein stability index (pdr5∆): 2.99 ± 0.052 | protein stability index (san1∆): 3.09 ± 0.059 | protein stability index (ubr1∆): 2.99 ± 0.037

GGNSTQNTSNMNAGGLF [YGR119C/NUP57]
protein stability index (doa10∆): 3.26 ± 0.093 | protein stability index (pdr5∆): 3.15 ± 0.06 | protein stability index (san1∆): 3.04 ± 0.055 | protein stability index (ubr1∆): 3.19 ± 0.081

TWEECVFFDDDPLYDIT [REC8]
protein stability index (doa10∆): 3 ± 0.13 | protein stability index (pdr5∆): 3.24 ± 0.14 | protein stability index (san1∆): 2.95 ± 0.06 | protein stability index (ubr1∆): 3.08 ± 0.059

TFEIPQAHEIVIPSYSK [SWI3]
protein stability index (doa10∆): 2.43 ± 0.095 | protein stability index (pdr5∆): 2.37 ± 0.07 | protein stability index (san1∆): 2.39 ± 0.065 | protein stability index (ubr1∆): 2.36 ± 0.064

HPTIYESLPQYVDFVPM [POP4]
protein stability index (doa10∆): 1.72 ± 0.045 | protein stability index (pdr5∆): 2 ± 0.048 | protein stability index (san1∆): 1.81 ± 0.056 | protein stability index (ubr1∆): 1.78 ± 0.051
